Values of other authors in PMC8020814.

Target: C3b C3b (Homo sapiens) (UniProt P01024)
Sequence of UniProt P01024 (P01024 566-670): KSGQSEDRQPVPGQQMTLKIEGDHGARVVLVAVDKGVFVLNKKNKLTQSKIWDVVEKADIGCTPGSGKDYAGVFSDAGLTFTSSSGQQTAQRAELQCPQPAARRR

Kd: 11 µM
Substance: Factor H FH(1-4) (from UniProt P08603)
